Reference: US20220195407, “OPTIMIZATION OF ENGINEERED MEGANUCLEASES FOR RECOGNITION SEQUENCES” (Precision BioSciences, Inc., published 2022)
Residue numbers refer to the chain shown, from its start.

How the values were obtained:
Assay in all cases: cell_activity; CHO iGFFP reporter
[1] = target: T1, LOX 3-4m.856 (artificial (I-CreI derived))
T1 chain: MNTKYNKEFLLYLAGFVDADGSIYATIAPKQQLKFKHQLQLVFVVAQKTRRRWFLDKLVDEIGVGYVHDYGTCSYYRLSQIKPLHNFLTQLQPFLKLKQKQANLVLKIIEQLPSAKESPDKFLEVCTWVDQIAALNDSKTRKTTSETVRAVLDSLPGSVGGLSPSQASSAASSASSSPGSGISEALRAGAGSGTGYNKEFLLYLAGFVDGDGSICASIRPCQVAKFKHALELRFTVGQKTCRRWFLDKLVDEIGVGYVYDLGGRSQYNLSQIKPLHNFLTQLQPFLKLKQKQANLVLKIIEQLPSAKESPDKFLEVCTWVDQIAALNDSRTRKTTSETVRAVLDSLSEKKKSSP
Source text: (§1) A CHO cell reporter system (see WO/2012/167192, FIG. 3) was used to determine whether the engineered meganucleases generated in these studies could recognize and cleave the modified LOX 3-4 recognition sequences in Table 87. To perform the assay, a pair of CHO cell reporter lines were produced, which carried a non-functional Green Fluorescent Protein (GFP) gene expression cassette integrated into the genome of the cell. The GFP gene in each cell line was interrupted by a pair of recognition sequences such that intracellular cleavage of either recognition sequence by a meganuclease would stimulate a homologous recombination event resulting in a functional GFP gene. In both cell lines, one of the recognition sequences was derived from the LOX 3-4 recognition sequence (i.e., those sequences disclosed in Table 87), and the second recognition sequence was specifically recognized by a control meganuclease called “CHO 23/24.” CHO reporter cells comprising a recognition sequence derived from the LOX 3-4 recognition sequence and the CHO 23/24 recognition sequence are referred to herein as “test cells.”
(§2) Novel engineered meganucleases derived from the LOX 3-4x.109 meganuclease were prepared by making amino acid substitutions at one or more positions in the first subunit and one or more positions in the second subunit. In addition, two engineered meganucleases were generated that inserted an additional R residue following position 264, which corresponds to position 73 of wild-type I-CreI. These engineered meganucleases were then evaluated for cleavage of the LOX 3-4 recognition sequence modified to have an ACAG center sequence (SEQ ID NO: 34) in the CHO reporter assay according to Example 1.

[2] = target: T2, LOX 3-4m.776 (artificial (I-CreI derived))
T2 chain: T1 chain with F54L, G71R, T72Q, Q80E
Source text: as §1, §2

[3] = target: T3, LOX 3-4m.788 (artificial (I-CreI derived))
T3 chain: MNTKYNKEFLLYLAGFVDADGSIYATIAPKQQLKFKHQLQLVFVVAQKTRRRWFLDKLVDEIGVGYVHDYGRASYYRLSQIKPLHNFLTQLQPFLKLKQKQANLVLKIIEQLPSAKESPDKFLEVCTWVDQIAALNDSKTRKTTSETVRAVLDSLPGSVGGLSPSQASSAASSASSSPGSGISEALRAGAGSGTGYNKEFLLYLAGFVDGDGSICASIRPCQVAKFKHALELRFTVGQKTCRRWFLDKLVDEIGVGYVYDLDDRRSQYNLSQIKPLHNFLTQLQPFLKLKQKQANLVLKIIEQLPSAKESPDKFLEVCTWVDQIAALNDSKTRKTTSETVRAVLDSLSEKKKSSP
Source text: as §1, §2

[4] = target: T4, LOX 3-4m.775 (artificial (I-CreI derived))
T4 chain: T1 chain with F54I, T72K, C73A, Q80E, R330K
Source text: as §1, §2

[5] = target: T5, LOX 3-4 m.181 (artificial (I-CreI derived))
T5 chain: T1 chain with A19S, K48S, G71R, T72N, K139T, C241Q, G263S, R264V, N268T, R330K
Source text: as §1
(§3) Novel engineered meganucleases derived from the LOX 3-4x.109 meganuclease were prepared by making amino acid substitutions at one or more positions in the first subunit. These engineered meganucleases were then evaluated for cleavage of the LOX 3-4 recognition sequence modified to have a GTGC center sequence (SEQ ID NO: 463) in the CHO reporter assay according to Example 1. Novel meganucleases which were modified to comprise the residues recited in the tables below were capable of cleaving the LOX 3-4 recognition sequence having a GTGC four base pair center sequence.

[6] = target: T6, LOX 3-4 m.186 (artificial (I-CreI derived))
T6 chain: T1 chain with A19S, R50S, G71S, T72K, C73T, C241Q, G263S, R264V, N268T, R330K
Source text: as §1, §3

[7] = target: T7, LOX 3-4 m.180 (artificial (I-CreI derived))
T7 chain: T1 chain with K48R, R50I, T72A, C73V, C241Q, G263S, R264V, N268T, R330K
Source text: as §1, §3

[8] = target: T8, LOX 3-4 m.201 (artificial (I-CreI derived))
T8 chain: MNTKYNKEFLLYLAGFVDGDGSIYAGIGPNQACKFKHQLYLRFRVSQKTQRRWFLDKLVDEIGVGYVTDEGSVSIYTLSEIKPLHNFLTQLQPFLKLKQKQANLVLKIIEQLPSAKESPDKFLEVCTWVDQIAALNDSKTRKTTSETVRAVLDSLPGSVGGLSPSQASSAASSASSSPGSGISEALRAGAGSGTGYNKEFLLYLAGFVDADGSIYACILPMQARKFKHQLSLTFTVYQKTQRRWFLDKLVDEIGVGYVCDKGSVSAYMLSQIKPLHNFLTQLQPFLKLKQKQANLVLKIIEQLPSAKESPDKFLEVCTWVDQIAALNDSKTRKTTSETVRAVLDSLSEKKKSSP
Source text: as §1
as §3, with “GTGG” for “GTGC”, “496)” for “463)”

[9] = target: T9, LOX 3-4 m.203 (artificial (I-CreI derived))
T9 chain: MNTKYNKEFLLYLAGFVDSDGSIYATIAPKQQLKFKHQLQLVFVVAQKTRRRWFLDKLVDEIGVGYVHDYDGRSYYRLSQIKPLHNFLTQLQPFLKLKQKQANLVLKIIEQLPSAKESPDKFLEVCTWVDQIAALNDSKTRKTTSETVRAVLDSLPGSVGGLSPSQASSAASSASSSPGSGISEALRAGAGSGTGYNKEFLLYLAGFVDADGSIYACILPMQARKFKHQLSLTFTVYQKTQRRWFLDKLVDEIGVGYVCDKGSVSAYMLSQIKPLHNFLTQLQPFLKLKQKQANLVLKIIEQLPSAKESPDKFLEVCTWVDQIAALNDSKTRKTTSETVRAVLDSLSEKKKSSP
Source text: as §1
as §3, with “GTGG” for “GTGC”, “496)” for “463)”

[10] = target: T10, LOX 3-4 m.192 (artificial (I-CreI derived))
T10 chain: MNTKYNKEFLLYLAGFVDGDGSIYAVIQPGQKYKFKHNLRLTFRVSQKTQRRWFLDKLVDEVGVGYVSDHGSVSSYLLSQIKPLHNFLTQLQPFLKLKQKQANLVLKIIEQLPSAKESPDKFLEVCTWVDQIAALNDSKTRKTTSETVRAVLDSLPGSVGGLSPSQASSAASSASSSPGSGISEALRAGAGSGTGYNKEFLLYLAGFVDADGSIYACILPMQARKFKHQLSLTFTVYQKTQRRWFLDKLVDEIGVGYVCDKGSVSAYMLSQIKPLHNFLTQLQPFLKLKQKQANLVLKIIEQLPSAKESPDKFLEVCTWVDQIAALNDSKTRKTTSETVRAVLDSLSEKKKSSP
Source text: as §1
as §3, with “GTGG” for “GTGC”, “496)” for “463)”

B1: LOX 3-4 ACAG (dsDNA)
DNA 1: GTATAGCATACAGTATACGAAG
DNA 2: CTTCGTATACTGTATGCTATAC
B1 gave an activity [1] of 10.8 % GFP, an activity [2] of 10.4 % GFP and an activity [3] of 10.5 % GFP. The activity [4] was 12.2 % GFP.

B2: LOX 3-4 GTGC (dsDNA)
DNA 1: GTATAGCATGTGCTATACGAAG
DNA 2: CTTCGTATAGCACATGCTATAC
In the case of B2, the activity [5] is reported as 13.8 % GFP, the activity [6] is reported as 13.4 % GFP and the activity [7] is reported as 13.7 % GFP.

B3: LOX 3-4 GTGG (dsDNA)
DNA 1: GTATAGCATGTGGTATACGAAG
DNA 2: CTTCGTATACCACATGCTATAC
In the case of B3, the activity [8] is reported as 11 % GFP, the activity [9] is reported as 12.1 % GFP and the activity [10] is reported as 11.9 % GFP.
